Test: soluble on expression in E. coli; label from the status in PepcDB or PDB records
In the case of “MARVEGELFKIARASLEAEPIAWRYRYVKKGVMDSQGELWVGDWKYVPKKEDCNDRPNYEIQALFTAPPVPVTSEELVKAVHFYEQLKRENPPASGNQINGLTMSVKRPAN”, the “soluble on expression in E. coli” value is reported as “not soluble”. In the case of “MTSEQYSVKLTPDFDNPKWIGRHKHMFNFLDVNHNGRISLDEMVYKASDIVINNLGATPEQAKRHKDAVEAFFGGAGMKYGVETEWPEYIEGWKRLASEELKRYSKNQITLIRLWGDALFDIIDKDQNGAISLDEWKAYTKSDGIIQSSEDCEETFRVCDIDESGQLDVDEMTRQHLGFWYTMDPACEKLYGGAVP”, the “soluble on expression in E. coli” value is reported as “soluble”. For “MGSDKIHHHHHHMWRNAQVNWDDYRCFLTLAKTGSFSRAARLLHVDHTTVGRRVAALEVDLGIKLVERLAREVRLTAEGHDLATLGLPVEEAMASVERAAAGGGAALAGPVHISAPPGLASLLLAPKLVSLHRQYPEIKITMSSDKDFANLNRREADIALRLSRPLSNGLVARKLRDIPFFFFASHTYDIAEDDWEFITYLQADDILPQQSWLMQHIGSRTIALRCSDAASQVQAAASGLGVALLPDYLGYNDTRLRKCPSRLTPPRRELWMVVHDDIRHAPRVRVVLDFLIGILTATQDLELPHASEA”, the “soluble on expression in E. coli” value was “not soluble”. With “MGSDKIHHHHHHMSMDIVERINKLKEEKNAVILAHNYQPKEIQKIADFLGDSLELCIKAKETDADIIVFCGVDFMGESAKILNPEKKVLMPEIEGTQCPMAHQLPPEIIKKYRELYPEAPLVVYVNTTAETKALADITCTSANADRVVNSLDADTVLFGPDNNLAYYVQKRTDKKVIAIPEGGGCYVHKKFTIDDLKRVKSKYPNAKVLIHPECSPELQDNADYIASTSGILRIVLESDDEEFIIGTEVGMINRLEIELEKLGKKKTLIPLRKDAICHEMKRITLEKIEKCLLEERYEIKLEKEIIEKAQKAIERMLRI” the “soluble on expression in E. coli” value was “not soluble”. In the case of “MNNIPVEIRLLKNRTVLVLTYGDEPKNLPAEFLRVYSPSAEVRGHGVGQDVLQTGKADVQIADLQPVGQYALKISFSDGHDSGLYDWAYLHRLAYGYDAMWQEYLDKLAAAGASRFEEK”, the “soluble on expression in E. coli” value is reported as “not soluble”. In the case of “MSLVRMRVGKFDYLNNFLPYYFLNEKVEIVEANPREMASMLLSGRIDYAPVPAFFYLKNRERLRHYEFCVASEGKVLSVVVVSRKKELDDGSIAVTPHSLTSVNLLKILLAERGMKNMLVEVNTAKASEMLELCPHALVIGDEAIKARMIYKVVMDLGEEWYELTSLPAVFGISASLKETNAEEMDRKILMATEEGYRRFDEVVRAAEKAFKMPREFLEEYFRTLKFRLSSKERRGLDEFEKYCRDYGLLEEGHHHHHH”, the “soluble on expression in E. coli” value is reported as “not soluble”. In the case of “MKGLIIKQPYANWIVEGKKVWEIRKTPTKIRGRVIIISEKKAVGSVEIVDVLGPFTPEELANHENKHLASYDFLKRYANGKKLYAWVLANPEKYDPPIEVKIPNGAQIWVNLKGFVRR”, the “soluble on expression in E. coli” value is reported as “soluble”. For “MGSDKIHHHHHHMRLKELLPNFLIVHQEVPEDPIAFKSTDKRENENKEITIPELIDTKVPELADGATDTLYGLLVNGHLQTAYGSFRHFDNIYKVQYKRMIIKYPHGGEGTVDFAVNGRSTKRRKVEKEYVPTSQPVFNGNLKRRYSYYSPDDPKLNSDDAKPMLIILHGLTGGSRESYVRAIVHEITTKYDFEACVFNARGCCYSAITTPLLYNGGWTNDIRYCVNDLRKRFPNRKFYMMGFSLGASIMTNYLGEESDRTKIECAISVSNPFDLYNSAYFINSTPMGSRFYSPALGHNLLRMVRNHLSTLEENPDFKDVIEKHLKKIRTVRQFDNLLTGPMFGYKNAEEYYKNASSYKRIPGIRTPFIALHAQDDPIVGGDLPIDQIKSNPYTLLLETSTGGHVGWFKDRSGRRWYAEPLCRFLKIFHDEITVKGLKPDLENVQLPDPNCEPIATTFRAN”, the “soluble on expression in E. coli” value was “not soluble”. For “ANSKLTSDFDNPRWIGRHKHMFNFLDVNHNGKISLDEMVYKASDIVINNLGATPEQAKRHKDAVEAFFGGAGMKYGVETDWPAYIEGWKKLATDELEKYAKNEPTLIRIWGDALFDIVDKDQNGAITLDEWKAYTKAAGIIQSSEDCEETFRVCDIDESGQLDVDEMTRQHLGFWYTMDPACEKLYGGAVP”, the “soluble on expression in E. coli” value was “soluble”. With “MDQTQNTIAGIGEINGSIKTEINAIATVDDSNEKLNQIINSNQKILELLHQLKLTVSSFTPASQLHLLQRLNSLVMELDNMAKLSDKCNIQVPIEVLNLIDDGKNPDEFTKDVLNKNCIAKNQVTKGKSDAFKGLRKHLLEELEQAFPDEVDRYRDIRASYAAEAKRLAQTQSVLPNGDAKVKSEL” the “soluble on expression in E. coli” value was “soluble”. For “SAENREPRCAIEAELDPVEYTLRKRLPHRLPRRPNDIYVNMKTDFKAQLARCQKLLDGGTRGQNACTEIYIHGLGLAINRAINIALQLQAGSFGSLQVAANTSTVELVDELEPETDSREPLTRVRNNSAIHIRVFRVTPK”, the “soluble on expression in E. coli” value was “soluble”. For “MGSDKIHHHHHHMKQLGLGLNLSTKKTRKREFLEDMERVVPWAVLVQIVAPHYPKAKTGRPPFGIETMLRIHYLQQWFGLSDPAMEEALHDVPLYREFAKLDSVTARLPDETTILRFRHLLERHNLAVDMLRVVNDLLQHKGLMMRTGTAVDATLISAPSSTKNAEGERDPEMKQTRKGNNWYFGMKAHIGVDAQSGLVHTVATTGANVNDLNMAGALLHGDEEAAFGDAGYQGVHKRPEAKGPTWHVAMRPGLRRKLNPFIEPDFIAERIEKMKASIRAKVEHPFRVIKRQFGFTKVRYRGLKKNTAQIVTLFALSNLWMARRQLIGARG”, the “soluble on expression in E. coli” value was “not soluble”. In the case of “MTAVVSNREEDSMNNEPSLSGRAIIGLIYPPPDIRTIVDKTARFAAKNGVDFENKIREKEAKNPKFNFLSITDPYHAYYKKMVYDFSEGRVEAPKVPQAVKEHVKKAEFVPSAPPPAYEFSADPSTINAYDLDLIRLVALFVARNGRQFLTQLMTREARNYQFDFLKPAHCNFTYFTKLVDQYQKVLVPSTNVVAQLQDDATNKKRLIEDINYRVSWEKHQKGLKDREEAEAEKERQAYASIDWHDFVVVQTVDFQPGDTSQLPPLCTPKDVGARILLEARNEMQKAAAEMQEMDMEESDSDDEDAVQAPEAPAFTAPLPPTKQKDVIVRDYDPKRNVTQKPKAVENWIISPLTGERIPSDKLAEHVRYNTVDSQYKEDRDRHIGERSTEEPVLALGADISRNLGNFAERRTDIFGVGGEQTMIGKKLGEEDNSQQGQNKLIWDGTEETRDMITRAVQNKVTLDQQINEIHRQHGFVADPSKEKIGAQQVPRHQSTQGNVTITQGITNIPGQMPSGWPPVPPMGMPGMPNQALPPIRQMDFGGGPPAKRPRTEDDLIPEADWLKKVNGAISLNVHLPQAPEHGMDGSIVQFTIQVTAPMSELKQQIQDRYGMPVGKQKLMSDGLFVKDNMSSAFYNLADRTAIYLQVKERGGKKK”, the “soluble on expression in E. coli” value is reported as “not soluble”. For “GMSTPSPALFFNTVNAYQRSAAIKAAVELNVFTAISQGIESSQSLAQKCQTSERGMRMLCDYLVIIGFMTKQAEGYRLTSDSAMFLDRQSKFYVGDAIEFLLSPMITNGFNDLTAAVLKGGTAISSEGTLSPEHPVWVQFAKAMSPMMANPAQLIAQLVNENKIEPLKVLDISASHGLFGIAVAQHNPNAEIFGVDWASVLEVAKENARIQGVASRYHTIAGSAFEVDYGNDYDLVLLPNFLHHFDVATCEQLLRKIKTALAVEGKVIVFDFIPNSDRITPPDAAAFSLVMLATTPNGDAYTFAEYESMFSNAGFSHSQLHSLPTTQQQVIVAYK”, the “soluble on expression in E. coli” value was “soluble”. In the case of “DIINFFKQITDHEPYDYQIRAWEKINKIMELGGRVVIEIPTAGGKTEAAIIPYLYQFISNDWKVPRLIYVLPTRSLVEKQVERIRNYIKKILEIKGYSKDKVEELAKKIVQVEYGLEETHAFLGFVVLTTWDTFLYGLAAHRTVGDRFTFPCGAIAQSLVVFDEIQMYQDESLYMPRLIGLVVKRLVEANVPLVFMTATLPTELKKILGIHDEEPITVNPEDT”, the “soluble on expression in E. coli” value is reported as “not soluble”. For “MASSSNFMAPPPKMNKTSSMNSLRKTLGLKKPNNGELSMVPSRPIVSPTLSSPLQGSGAAPLEKDYHSLEYRLTHGHWRIFNSKSVFGNKDASVLVFDKKSNVKAPPKLGKSKTYSMFDLIKYETQQLMGLIHPRILHMEHSLEETKDYISFATEQIFGNLENVVTDESLDRLEIKLGVLQIIDGMSYLHNSAKMLHGNLTPDAIYVTATKTWKIGGFSFAVNAKEPNCYPCYPWTKKLPPCLQPDLDFLAPENLAPGQTTVTSAADVFSLGVLICWIYAGGKRLIDAKSNLETYHIVVGQLDAALQCISNELGPNLKDSMAKVLSLDVEVRPTVQLLSLIKHFDDPCLSALRQLDDIAQVFDPSQKSHFLSQTLNVAIPHISESVWFNRVLPRFNEQLLELPEMYYPITKPLFHILEHCESHNIHKMKPWIRKLMEAAPHNKLLRAFILENMSALFRRLSDEFVEDKCLDVIILSLKSEDTSLQSSAVRGLPHVAEYLPVGFITKKLIPAIMGLPPFLHENVPRQLDLLAALAALSDRCDVSSIVHLFGCISLCNSSHPVIVHAKSRIVQRLVMRDPNRLKDSQLLSIHLLNPLVNGLACKDLSTFSCAHFDDVLSSVRILLDVLEQRRYEMEDRQEHKQSNHHLGLNRLGNRRVSMSSTNLPRVMISAARPSFSSDSRKMSFLSADGRLEDRGSRRESRDSRGSLESDMSIRIGNGSDISDDSCFSSHSAKGRRQSWLDGYGHSVSLEQNTNGFLETTSRNLGDRNSMNFKQRNARASERRARTRSPNAELDPQREQPPARPNSFTNLGHNIVLTYRNLLYKDHT”, the “soluble on expression in E. coli” value was “not soluble”. With “SLSSLDAVLSQDLIVADGPAVEVGDSLEVAYTGWLFQNHVLGQVFDSTANKDKLLRLKLGSGKVIKGWEDGMLGMKKGGKRLLIVPPACAVGSEGVIGWTQATDSILVFEVEVRRVKFAR” the “soluble on expression in E. coli” value was “soluble”. In the case of “MAIALSTLVEEADRYLDAARIQDYCPNGLQVEGRPQVRRIVSGVTASQALLDAAVEADADVVLVHHGYFWKGENPCVVGMKQRRLKTLLNNDISLLAYHLPLDLHPEVGNNVQLARQLGFEVEGPLEPGNPRSIVLLGSLAEPMQPADFARHVRDALGREPLLVDAGQPIRRIAWCTGGAQGYIDQAIAAGVDAYLTGEVSEQTVHSARENGISFIAAGHHATERYGVQALGDYLGKRFAIEHLFIDCPNPALEHHHHHH”, the “soluble on expression in E. coli” value is reported as “soluble”. In the case of “QVQLQQPGAELVKPGASVKLSCKASGYTFTSDWIHWVKQRPGHGLEWIGEIIPSYGRANYNEKIQKKATLTADKSSSTAFMQLSSLTSEDSAVYYCARERGDGYFAVWGAGTTVTVSSAKTTPPSVYPLAPGSAAQTNSMVTLGCLVKGYFPEPVTVTWNSGSLSSGVHTFPAVLQSDLYTLSSSVTVPSSSWPSETVTCNVAHPASSTKVDKKIVPRD”, the “soluble on expression in E. coli” value is reported as “soluble”. In the case of “MGSDKIHHHHHHVNFRDLGGYPVGDGRRTRWGRLFRSDSLGALTEEDLALVAALDLYRVVDFRLPHERELHPNRLPVGAGPKVTEIGFWPDGVPEMLKALRELRIDAAGIERAVTGHYRRYAVHHRAEYRRMLEAVEEAAGRPTLIHCVSGKDRTGFGAAVILMALGVPRTVIVEDYLLTNDCRRDIGHLMPSGTTESVAEAFTAARPAYIEAAFESIDTAFGGIDDYLAHGLGFGEQRLQRLRECLTEPATGSASLLSPRRAGNP”, the “soluble on expression in E. coli” value is reported as “not soluble”. In the case of “MPVMDRAAMRTMATLQPSCMRWLCTTPSILDAAKAGWPISWAATPDSPATVTIRQFQASTCCRKKTFDVVVNTDVLEHVPEAELDCVLRDFRKLSTNAIIIPHLAKATRILPNGENAHCTIKTPSEWAQVFKRHYAHVYELPHHSAVHALFLCGDQERDVTALRGILEQYVAAKNEVRHHLLPLGKRIEKAIRLIRGKDINRLEHHHHHH”, the “soluble on expression in E. coli” value is reported as “soluble”. With “MTKKDKKAKGPKMSTITTKSGESLKVFEDLHDFETYLKGETEDQEFDHVHCQLKYYPPFVLHDAHDDPEKIKETANSHSKKFVRHLHQHVEKHLLKDIKTAINKPELKFHDKKKQESFDRIVWNYGEETELNAKKFKVSVEVVCKHDGAMVDVDYKTEPLQPLI” the “soluble on expression in E. coli” value was “soluble”.

From the DeepSol protein solubility set
